We go through 23 sequences from a protein production outcome set (Wang et al. 2014).
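Further: failed if final PepcDB status was selected cloned or expressed and not failed if soluble or beyond.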

A short description of this series: label from the status in PepcDB records.
Regarding “MNHTADNCIFCKIIDGQILCSKVYEDEHVLAFLDISQVTKGHTLVIPKVHKQDIFALTPEIASHIFSVVPKIANAIKAEFNPVGFNLLNNNGEKAGQTVFHFHLHLIPRYGENDGFGAVWKSHQNEYTMENLQNIASTIANSVK”, the protein production result is “not failed”.
The entry for “MIQCEECLCWQHSVCMGLLEESIPEQYICYICRDPPGQRWSAKYRYDKEWLNNGRMCGLSFFKENYSHLNAKKIVSTHHLLADVYGVTEVLHGLQLKIGILKNKHHPDLHLWACSGKRKDQDQIIAGVEKKIAQDTVNREEKKYVQNHKEPPRLPLKMEGTYITSEHSYQKPQSFGQDCKSLADPGSSDDDDVSSLEEEQEFHMRSKNSLQYSAKEHGMPEKNPAEGNTVFVYNDKKGTEDPGDSHLQWQLNLLTHIENVQNEVTSRMDLIEKEVDVLESWLDFTGELEPPDPLARLPQLKRHIKQLLIDMGKVQQIATLCSV” is “not failed”; for “MSLFEQLDELAAQGKPAALLTIVRKDGSAPRDVGDKMIVTADEEYGTIGGGTVEHLAVQDARSVLSGADDPGIRTYELERGGNTGMVCGGEMDVFIDHVRGQAQLYIAGGGHISVELAPLAERLGYAVTVVDDREAYADPTQFPDETDVIHGEYGEALGDLPMGTETAVAVATRSGTFDQAAVAAALDGEAGYVGLVASETKANHVLDSLAESGYARRDLSRVQTPVGLDLGGSGPAAVALSVLAEVTMDRHDATGARATRLNLDDLVVVRGGGDLGSGVVYRLQQAGFPVIVTEVDQPTVVRRAVAFGAALYEDEVEVEGVTGRAAADIDEALELLADDVVPVLVDPEATVADDLDAAVLVDAIMAKGAFDTGTRREDADVVVGMGPGFEAGEDVDAVVETDRGHELGRVFYDGLEHHHHHH” it is “not failed”.
With “MNTMLNPHYQQIWQTVQLIPQGKVACYGQIADLAGLPGRARLVGKSLGKVPKDGWRGQRVPWFRVINSQGKISFPPGSENFDKQKHHLQDEQVVVIGSRIKLKEFQWKPDLSELLFSLEFLEHHHHHH”, the protein production result was “failed”.
The entry for “SGSSMEEKVVAVIMVGGPTKGTRFRPLSLNIPKPLFPIAGQPMVHHPISACKRIPNLAQIYLVGFYEEREFALYVSAISNELKVPVRYLREDKPHGSAGGLYHFRNLIMEDSPSHIFLLNCDVCCSFPLPKMLEAHRGYGGIGTLLVIKVSPESASQFGELVADPVTNELLHYTEKPETFVSDRINCGVYVFTPEIFNAIGDVSTQRKDRATLKRVSSFEALQPATRIPTDFVRLDQDILSPLAGKKRLYTYETMDFWEQIKSPGMSLRCSGLYLSQFRLTSPQLLASGDGTRSAIVIGDVYIHPSAKVHPTAKIGPNVSISANARVGPGVRLMSCIILDDVEIMENAVVTNAIVGWKSSIGRWSRVQAEGVYNSKLGVTILGDSVAVEDEVAVTSSIVLPNKTLNVSVQDEIIL” is “failed”; for “MRNQFDLELHELEQSFLGLGQLVLETASKALLALASKDKEMAELIINKDHAINQGQSAIELTCARLLALQQPQVSDLRFVISIMSSCSDLERMGDHMAGIAKAVLQLKENQLAPDEEQLHQMGKLSLSMLADLLVAFPLHQASKAISIAQKDEQIDQYYYALSKEIIGLMKDQETSIPNGTQYLYIIGHLERFADYIANICERLVYLETGELVDLN” it is “not failed”.
The entry for “MNQRDVILDCEKKLLTAIQNNDVESLEVLLHDDLLFIIPSGETVTKETDIAAYSSGKIALRAVVPSDYIIRIIHDTVVVSVNIEIKGEYMEHTLDNTFRYLRVWKLFDGNWKVIAGSCTAIG” is “not failed”.
As for “PEQIWAKQQKDGSWLMDALIPLNELKYKLGLTTIEGEESEGFQTLNGFLTWWLGRLPHAGELVDYEGWQFEVLNVKHHRIVQVKVSRET”, the protein production result is recorded as “failed”.
Turning to “MSWFTTQRHSGLCRDFGRRWRRVATISSAIALICAQPLFAVPAAKPNEDFFSIAKSIELLGDVYKNVAQNYVDPVNVSEFMYSGIDGMLGQLDPYTAFLDEEQSGELDEITSGQYAGIGVTLGIFSGDLFIISVIDGQPAAKAGLKVGDQIIAIDGVKVSKKSIDEVRSTIKGSPGTNIRLSIKRDGQGPLTVISLTRGEVRISSVPFFGLFGSSGYVQMNSFSEHSREELSAAIRKIRQEAAKNRVVLNGIVLDLRGNPGGLLTSAVEVAGLFVEKNSRIVSTRGRAADSEQVYVTKTEPQEPTLPLVVMIDGDSASASEIVSGAIQELDRGVILGENSFGKGLVQSIINLPYDHILKMTTAKYYTPSGRLIQKPIARDESRRKVVLSNGDADSTKVFYTRNRRKVYGGGGIRPDVVAKADSLSEYQHKIENSGLLFRYASRFHRKHPEFRLQQLSSEPLYDDFNRFLEKEHFSFRSGAQKTLDSLKTLVQKEAGADKALAGQLDALDKALAASTRRNISRDSLHITAALQREIMRHYDERAALKRAIEDDPVAAKAFALLGDQKRYRSLLKP”, the protein production result was “failed”.
The same measure for “MALAGLLLGSALASSARAQSSDAAKPELEDALAVVDSLRRAGAFPAAQERLQSLREQHPERVPVLWRLVYTYADLGQSTDEENVRAQYYNNALNVAKAGLAADSTSARAHLAMAVAQGRAALDAGTRERIERSRAVKRHADRALAIDSTLDGAYHTRGRWHREVEDIGFVQRAIVKTVYGGLPESSIDQAVRDFRRALELRDRIFHHLELGKTYLQMDRPDAARRELRAVLDMPAEEPFDPRYKDEARRLLDDLD”: “failed”; for “MSFSDHFSAVAASYAKARPRYPQRWFRYLARIVPDRQRVWDCATGNGQAAIALAEYFSEVIGSDASAAQVRQARSHPRVQYLVFPAEATPLAPASLDLITVAQAAHWFDLPQFYIEAQRLLRPGGVIALWGYGLGSLNPAIDHVFNHFYRDWLDPYWPPERQWVEQAYEGLSFPFEPLPTPTFSMQCDWTLFDLLAYLRTWSGVQQFQRQRGFDPVWAIAPELQRVWGDPQRYRRITWPLFAKVGRWQPLEHHHHHH”: “not failed”.
Turning to “MYKYITILGAAGQIAQKLTATLLTYTDMHITLYGRQLKTRIPPEIIDHERVTVIEGSFQNPGKLEQAVTNAEVVFVGAMESGSDMASIVKALSRKNIRRVIGVSMAGLSGEFPVALEKWTFDNLPISYVQGERQARNVLRESNLNYTILRLTWLYNDPEKTDYELIPEGAQFNDAQVSREAVVKAIFDILHAADETPFHRTSIGVGEPGTHYDKPSFH”, the protein production entry is listed as “not failed”.
For “MSEMSPKEFKHILVGVDDSDDAQLAFRYAINRAKSDGAKLTIVSILEQDNMNVYEAMSKDFVHGQRKDLEEHVQQYQKLARDFGVTDVNAVVDEGDPGETIVKTVIPALKPDLLVIGSVAKHGVRKYFGSQAAYMAKHAPISVLVIR”, the protein production entry was “failed”.
The entry for “MSENMVNLPDSLYEDYSKLKLTSPSNASSSSSAPPPRLSVVAHPTVEMIIQWVCDIHKPKSYMSDFALHNLAYHRNDFEFLPSLLWESKNTVYIMLQEVFEAYRHLAGHISLRLFPHPLNPLRVYNVFLLFQSMACHPDTSRQFLRAKMPNYFYPLMDTGLIDKSDECMRLAALGVIAHMLKASEDGAVNRYLMESGVVGFCVKPIEFGSTETKKVALYILDKIMSTDQGLYYCCVLADRFYVIDELLKKVLFYLSNMVRPPSSLFSLVTGCYVKLSQNSRARNGIRRYTPFLLFDGTFSRLYAEDPVAANNRIQLLQNLDN” is “failed”; for “MAKLVTENISKRFKNQDVLKHINITLENNEVYGLLGINGAGKTTLMKIICGILQQDSGEIKLDNRPMTRNDLHKVGSLIETPATYNHLSAQDNLKIVCLNESVDFSEINSVLSLVNLNVDKKKKVKDFSLGMKQRLGIAMALIKKPEILVLDEPSNGLDPYGIQELRELLKLLTEQGTSIIISSHILSEIQVLADHIGIIHEGELKYQQRNNKDENLEEIFFKITKGDYK” it is “failed”.
As to “GLGFMALDEDLRIIYVNSGCLRHVRRSRDELLGRVVTEVLPETQGSYFDALCRKVLATGREQQTRVDSLYSPGMTIEVTAAADSGALVVHFRDVTAE”, the protein production result is recorded as “not failed”.
As to “MNKQSAAVLMVMGSALSLQFGAAIGTQLFPLNGPWAVTSLRLFIAGLIMCLVIRPRLRSWTKKQWIAVLLLGLSLGGMNSLFYASIELIPLGTAVTIEFLGPLIFSAVLARTLKNGLCVALAFLGMALLGIDSLSGETLDPLGVIFAAVAGIFWVCYILASKKIGQLIPGTSGLAVALIIGAVAVFPLGATHMGPIFQTPTLLILALGTALLGSLIPYSLELSALRRLPAPIFSILLSLEPAFAAAVGWILLDQTPTALKWAAIILVIAASIGVTWEPKKMLVDAPLHSKCNAKRRVHTPS”, the protein production entry was “failed”.
The entry for “MAGFSSLIPRTLLKRAVSSATRNLTAPLASISAARNLFIGGGCDENYGEPGVFSHSNGIRKYNTVGNAGALTGPFHHLLGVNQTNKPAFLRVQSMSYQFVADSHSSPKRIVKNEDEEDFSDSSKKGNAENPRKHQIGENIPKKDKIKFLVNTLLDIEDNKEAVYGALDAWVAWERNFPIASLKIVIASLEKEHQWHRMVQVIKWILSKGQGNTMGTYGQLIRALDMDRRAEEAHVIWRKKVGNDLHSVPWQLCLQMMRIYFRNNMLQELVKLFKDLESYDRKPPDKHIVQTVADAYELLGMLDEKERVVTKYSHLLLGTPSDDKPSRSSRKKKKPELRIPEATTEGAVDAAKAEIQEERKENLDNHQESEAATEKQFEHGA” is “failed”; for “GHMAIQRRIRRVKTVQMTTNSPIHRSGSVLEPGNWQEYDPFLLLMEDIFERGTFDVHPHRGIETVTYVISGELEHFDSKAGHSTLGPGDVQWMTAGRGVVHKEDPASGSTVHSLQLWVNLPSAYKMTEPRYQNLRSKDMPVRKEEGATIRVFSGSSKGVKAPTKNIVPVTMVEMIVEPGTTVVQDLPGHYNGFLYILEGSGVFGADNIEGKAGQALFFSRHNRGEETELNVTAREKLRLLLYAGEPVNEPVVAYGPFVMNTPEQIREAIRDYQEGRFGR” it is “not failed”; for “MASYYEILDVPRSASADDIKKAYRRKALQWHPDKNPDNKEFAEKKFKEVAEAYEVLSDKHKREIYDRYGREGLTGTGTGPSRAEAGSGGPGFTFTFRSPEEVFREFFGSGDPFAELFDDLGPFSELQNRGSRHSGPFFTFSSSFPGHSDFSSSSFSFSPGAGAFRSVSTSTTFVQGRRITTRRIMENGQERVEVEEDGQLKSVTINGVPDDLALGLELSRREQQPSVTSRSGGTQVQQTPASCPLDSDLSEDEDLQLAMAYSLSEMEAAGKKPAGGREAQHRRQGRPKAQHQDPGLGGTQEGARGEATKRSPSPEEKASRCLIL” it is “not failed”.
The same measure for “MNNGRRIGLIMIITGATLWGLSGPMIQWLFQHTNVSSIDFLTIRLLLAGIFILSFLLIKKQNIFQIWKHPRYSIQLIIFSILGMLGAQYAFIETVHISNAVTATLFQFLGPVLITMYVAFEQRKFPASMQLFAIIAALIGTYFIITNGSIENIVLSKEAIIFGLLTAIGFAFYTLHPASLIKECGTTVVIGWGMLIGGIALLIYNRSFGWNQFSQTLTLKTFSMLILIIISGTLSFLLYIGSLKYLAATETSILSSIEPLVAAIVSITWLNESFGTYQLLGGVCIVLSVIFLTMPQKETEPTYTTEQI”: “failed”; for “MLYPNERKSSVHAIPYQDQLKQVQSAVDEFQKANGGLLPIQTKDMSTPLYQKYPIDFNRLAPRYIAEPPSTAFESGGDYQYVLVDVENDPTVKLIDLKMAEKIRDVKLRIQMYRQEHQYPPYKDVLSRDLFTLDEKKLGDGSSLTVTSPISGNSLPLMIDGDGEIYADYRTELASCLKKSKKTFKPGTEIQDMIWHETPFVPAFSVKYTVNDKQEPVFLENDMKKELEHHHHHH”: “not failed”.
The entry for “MLNKFKKIVGVSVLVGCLGVLQAKNSLFVLPYEQKDALNSLVSGISNARESVKIAIYSFTHRDIARAIKSVASRGIKVQIIYDYESNHHNKQSTIGYLDKYPNTKVCLLKGLKAKNGNYYGIMHQKVAIIDDKIVFLGSANWSKNAFENNYEVLLKTDDTETILKAKSYYQKMLGSCVGF” is “failed”.
